For the assay, the target named is HLA-B*07 (human). The assay is described as follows: UV peptide exchange ELISA; ++++ = yield >75%.

Some results are limits rather than exact numbers.

Consider VPRNQDWLGVSRQL, for which the peptide exchange yield is > 75%. Consider RPGPQRTTSV, for which the peptide exchange yield was > 75%.

In the case of APQVHIFSL, the peptide exchange yield is > 75%. Consider LPAFSKIGGIL, for which the peptide exchange yield was > 75%. For IPWFIKTAF, the peptide exchange yield is > 75%. On to APLRVHITSL, for which the peptide exchange yield was > 75%. As to VPYPSPTCV, the peptide exchange yield is > 75%. The same measure for MPAGGGPRSL: > 75%.

As to APKTSFIAA, the peptide exchange yield was > 75%. For QPSLKKIIL, the peptide exchange yield is > 75%. As for SPRQPRLDF, the peptide exchange yield is > 75%. Regarding LPLDTRTSI, the peptide exchange yield was > 75%.

Turning to RPYGCVLRAA, the peptide exchange yield was > 75%. As for SPSSASLTL, the peptide exchange yield was > 75%.

Regarding VPILPLNHAL, the peptide exchange yield is > 75%.

VPRPTSTVGLFL: the peptide exchange yield was > 75%. In the case of NPVPVITWYKDNRL, the peptide exchange yield is > 75%. For APHAGGALL the value was > 75%; for APLMPLGKTL, > 75%; for KPRTPFTTAQL, > 75%. For GPRQVLFPL the value was > 75%.

As for APTPRPKVL, the peptide exchange yield was > 75%. The same measure for LPAPTSLVL: > 75%; for IPMPRITWL: > 75%; for RPNGEVKSEL: > 75%. Regarding SPYGSDRLVQL, the peptide exchange yield is > 75%.

Consider SPLEKINSF, for which the peptide exchange yield is > 75%. As for RPKSTLMNF, the peptide exchange yield was > 75%. Regarding MPHLGPGILL, the peptide exchange yield is > 75%. As to LPRGVLEGL, the peptide exchange yield was > 75%. For KPRNMTGLDL the value was > 75%. For LPTDLFNSVM the value was > 75%. With SPDPAHLESL, the peptide exchange yield is > 75%. For the molecule WPNHIMLVL, the peptide exchange yield was > 75%. FPRTVKHIDAAL: the peptide exchange yield is > 75%. For SPYPGSAAF the value was > 75%. With FPQVGRTAL, the peptide exchange yield was > 75%.

On to RPKTSVNLISSL, for which the peptide exchange yield is > 75%. As for SPMEAILVSRL, the peptide exchange yield is > 75%. On to NPASRLTAL, for which the peptide exchange yield was > 75%. With APRGPAQGEAA, the peptide exchange yield is > 75%. As for SPRRLVELAGQSL, the peptide exchange yield was > 75%. In the case of QPVLPSPAC, the peptide exchange yield was > 75%. Take APMAPGRSPL: the peptide exchange yield was > 75%.

As for APKFISPASQL, the peptide exchange yield was > 75%. On to SPSQTVQRAV, for which the peptide exchange yield was > 75%. For the molecule VPKADLLTL, the peptide exchange yield is > 75%. As for RPQPQPRPAL, the peptide exchange yield was > 75%. As for APLKMLAL, the peptide exchange yield was > 75%. VPKSLPYVL: the peptide exchange yield was > 75%.

As for RPSFPNLTSF, the peptide exchange yield is > 75%. For RPKHFLQML, the peptide exchange yield is > 75%. On to QPRDGWPMML, for which the peptide exchange yield was > 75%. For VPIPTHYFVVL, the peptide exchange yield is > 75%. The same measure for LPGEREAAL: > 75%; for SPSYTQASL: > 75%.

As to MPLLADVRL, the peptide exchange yield was > 75%. Turning to FPVQATIDF, the peptide exchange yield was > 75%.

As for SPTLRQLDL, the peptide exchange yield was > 75%. For SPASRSISLL the value was > 75%. The same measure for QPVKKNTL: > 75%; for SPSFSSTLLSL: > 75%; for APALPGQVTI: > 75%. Regarding APAKDARASL, the peptide exchange yield was > 75%.

Take KPRTPFTTA: the peptide exchange yield is > 75%. On to RPPLSQRHTF, for which the peptide exchange yield was > 75%. In the case of LPSLHVLVL, the peptide exchange yield was > 75%.

In the case of SPAPWRPWI, the peptide exchange yield is > 75%.
